Results as given in patent publication US12091454B2, “Humanized anti-human neurotensin receptor 1 antibodies and their uses” (DEVELOPMENT CENTER FOR BIOTECHNOLOGY, priority 2022, dated 2024).
“And” between values parts separate entries of the source, which are not always exact repeats. Equal values may be shown once.

Tests used:
[1] = system: NTSR1 linear L2-biotin protein; assay: Binding affinity of the humanized antibodies by ELISA; design: species or system human; settings: for binding signal for NTSR1 in binding ELISA: FIG. 4; for Kd: binding ELISA, non-linear regression
Protocol: ELISA plates were coated with 1-2 μg/100 μL per well of NTSR1 linear L2-biotin protein. Wells were rinsed for 3 times with PBS and blocked with 300 μL of 5% MPBS per well for 2 hr at 37° C. After washing with PBS, wells were incubated with serial diluted NTSR1 antibodies in 5% MPBS for 1.5 hours at 37° C. The plates were washed and goat polyclonal anti-human IgG-HRP antibody (1:10,000) (JACKSON IMMUNORESEARCH®) was added into each well. The OD at 650 nm and at 450 nm was read. Readings were obtained by subtracting OD650 from OD450 and the binding affinities of antibodies were calculated by non-linear regression with Prism software (GRAPHPAD®).

[2] = system: NTSR1 expressing cells, FaDu; assay: Cell-binding assay by FACS; design: species or system human
Protocol: Anti-NTSR1 antibodies were used to detect cells that express NTSR1 on the cell surfaces, for example using FACS. NTSR1 expressing cells, FaDu, were harvested and re-suspended in 5% PBS/FBS buffer. The cells (1×10^5) were incubated with anti-NTSR1 antibody (1-10 μg/ml) or negative control, at 4° C. for 1 hr, and then stained with goat anti-human IgG FITC conjugate ( 1/1000) at 4° C. for 1 hr. For each assay, two additional controls were prepared; one without primary antibody and the other one with absence of any antibody. All treated samples were analyzed with FACSVERSE™ (BECTON DICKINSON®) and the results were processed by FACSUITE™ software (BECTON DICKINSON®).

[3] = system: FaDu human head and neck cancer xenograft; assay: Xenograft model of anti-NTSR1 ADCs (head and neck cancer); type: in vivo, male NOD SCID mice; settings: 5 mpk, IV, BIW × 3
Protocol: The aim of this study was to evaluate the in vivo anti-tumor efficacy of αNTSR1 (AKT2) 4seco-DUBA, αNTSR1 (AKT2 Hu/Hu) 4seco-DUBA, and αNTSR1 (AKT2 Hu/Hd) 4seco-DUBA in FaDu human head and neck cancer xenograft model in male NOD SCID mice.
Formulations respectively comprising test article αNTSR1 (AKT2) 4seco-DUBA, test article αNTSR1 (AKT2 Hu/Hu) 4seco-DUBA, test article αNTSR1 (AKT2 Hu/Hd) 4seco-DUBA, and Hu IgG were formulated by diluting the stock with a 25 mM sodium citrate buffer (pH 6.5). […]
The FaDu cells were maintained in vitro as a monolayer culture in RPMI-1640 medium supplemented with 10% fetal bovine serum at 37° C. in an atmosphere of 5% CO2 in air. The tumor cells were routinely sub-cultured twice weekly by trypsin-EDTA treatment. The cells growing in an exponential growth phase were harvested and counted for tumor inoculation.
Male NOD SCID mice at age of 6-7 weeks were quarantined for one week. Five mice were housed in each cage. All animals were hosted in the animal facility with a 12-h light/12-h dark cycle at 19-25° C. Animals had free access to rodent pellet foods and water ad libitum.
FaDu cells were subcutaneously (SC) implanted (4×10^6 cells in 1:1 PBS/matrigel mixture at 0.1 mL per mouse) into the right flank of male NOD SCID mice. When the average tumor volume had reached about 200 mm^3, the mice were randomly divided into 7 groups (N=6 per group). Each of Hu IgG, αNTSR1 (AKT2) 4seco-DUBA (5 mg/kg), αNTSR1 (AKT2 Hu/Hu) 4seco-DUBA (5 mg/kg), and αNTSR1 (AKT2 Hu/Hd) 4seco-DUBA (5 mg/kg) was intravenously administered twice weekly for 3 weeks.
The tumor volumes, body weights, mortality, and signs of overt toxicity were monitored and recorded three times weekly for 28 days. Tumor volumes (mm^3) were measured three times per week using calipers and calculated according to the formula: Tumor Volume=(w^2×l)/2, where w=width and l=length in diameter (mm) of the tumor. The percentages of tumor growth inhibition (TGI) were calculated using the following formula: % TGI=[1−(T/C)]×100%, where T and C represent the mean tumor volumes of the treatment group and the control group, respectively. A TGI (%) value≥58% was considered as indicating significant anti-tumor activity. Animals were weighed three times weekly until the completion of the study.

[4] = In vivo pharmacokinetic analysis (MSD ECL total antibody assay); settings: BALB/c mice, 5 mg/kg via the tail vein
Excerpt: This Example used Meso Scale Discovery (MSD) Electrochemiluminescent (ECL) method to conduct the PK analysis of the anti-NTSR1 antibodies αNTSR1 (AKT2), αNTSR1 (AKT2 Hu/Hu) and αNTSR1 (AKT2 Hu/Hd) in BALB/c mice samples. The MSD assay can measure both conjugated and unconjugated antibodies. As illustrated in this example, for total antibody assay (including conjugated and unconjugated antibodies), the plate is coated with goat anti-human IgG, which can capture all humanized antibodies (conjugated and unconjugated).
The mice were administered at a dose level of 5 mg/kg via the tail vein. Blood samples were then obtained at different time points for determining the concentrations of αNTSR1 (AKT2), αNTSR1 (AKT2 Hu/Hu) and αNTSR1 (AKT2 Hu/Hd) in mice by MESO QuickPlex SQ 120 method. The PK parameters of αNTSR1 (AKT2), αNTSR1 (AKT2 Hu/Hu) and αNTSR1 (AKT2 Hu/Hd) were analyzed by noncompartmental analysis using PHOENIX™ for WinNonlin Program, version 6.3.

[5] = target: NTSR1 protein (Homo sapiens, UniProt P30989); assay: SPR (BIACORE T200) multi-cycle kinetic assay; settings: 25° C., one-to-one Langmuir binding model
Protocol: To know the binding kinetics differences among individual anti-NTSR1 antibodies, surface plasmon resonance (SPR) measurement with BIACORE™ T200 (CYTIVA® Inc.) was used as previously described (Karlsson & Falt, (1997) J. Immunol Methods 200:121-133). Carboxymethylated dextran biosensor chips (CM5, CYTIVA® Inc.) were activated with N-ethyl-N′-(3-dimethylaminopropyl)-carbodiimide hydrochloride (EDC) and N-hydroxysuccinimide (NHS) according to the supplier's instructions. NTSR1 protein was diluted with 10 mM sodium acetate, pH 4.0, into 5 μg/ml before injection at a flow rate of 10 μL/minute to achieve approximately 1500 response units (RU) of coupled protein followed by the injection of 1 M ethanolamine to block unreacted groups. For kinetics measurements, two-fold serial dilutions of anti-NTSR1 mAb (0.3125 nM to 40 nM) were injected in HBS-EP+BIACORET™ running buffer provided by the manufacturer (CYTIVA® Inc.) at 25° C. at a flow rate of 30 μL/min, and binding responses on the NTSR1 protein were corrected by subtraction of responses on a blank flow cell. Association rates (kon or Ka) and dissociation rates (koff or Kd) were calculated using a simple one-to-one Langmuir binding model with separate fittings of kon and koff. (CYTIVA® BIACORET™ Insight Evaluation Software).

Chain of NTSR1 protein (P30989 whole entry): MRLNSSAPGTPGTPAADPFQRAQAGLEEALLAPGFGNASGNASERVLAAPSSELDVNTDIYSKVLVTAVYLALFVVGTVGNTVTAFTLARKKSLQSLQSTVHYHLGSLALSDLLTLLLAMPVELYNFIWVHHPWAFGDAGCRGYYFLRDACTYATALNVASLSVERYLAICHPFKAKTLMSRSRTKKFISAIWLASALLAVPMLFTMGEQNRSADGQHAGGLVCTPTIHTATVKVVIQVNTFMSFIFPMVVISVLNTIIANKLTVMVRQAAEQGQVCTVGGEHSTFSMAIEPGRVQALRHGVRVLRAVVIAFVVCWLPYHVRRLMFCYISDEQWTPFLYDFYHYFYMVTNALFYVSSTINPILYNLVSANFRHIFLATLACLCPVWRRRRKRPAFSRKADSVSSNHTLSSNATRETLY

B1: 7C3 HdHd: humanized anti-NTSR1 antibody, 7C3 HdVH (SEQ ID NO: 11) and 7C3 HdVL (SEQ ID NO: 12) (antibody, V domains shown)
VH: EVQLVESGGGLVQPGGSLRLSCAASGYTFTSSWIHWVRQAPGKGLEWVAQIRPNSGNTYYNEKFKVRFTISRDDSKNTLYLQMNSLRAEDTAVYYCARYYYGFDYWGQGTLVTVSS
VL: DIQMTQSPSSLSASVGDRVTITCRSSQSIVHSNGNTYLEWYQQKPGKAPKLLIYKVSNRFSGVPSRFSGSGSGTDFTLTISSLQPEDFATYYCFQGSHLPWTFGQGTKVEIK
In the case of B1, the “binding signal for NTSR1 in binding ELISA” value (“binding signal for NTSR1” for short) [1] is reported as “much lower binding signals”.

B2: 7C3 HuHd: humanized anti-NTSR1 antibody, 7C3 HuVH paired with 7C3 HdVL (antibody, V domains shown)
VH: QVQLVQSGAEVKKPGASVKVSCKASGYTFTSSWIHWVRQAPGQGLEWMGQIRPNSGNTYYNEKFKVRVTMTRDTSTSTVYMELSSLRSEDTAVYYCARYYYGFDYWGQGTLVTVSS
VL: DIQMTQSPSSLSASVGDRVTITCRSSQSIVHSNGNTYLEWYQQKPGKAPKLLIYKVSNRFSGVPSRFSGSGSGTDFTLTISSLQPEDFATYYCFQGSHLPWTFGQGTKVEIK
For B2, the “binding to FaDu cells” value ([2]; concentration of 1 μg/mL) was “do not bind well”, the “binding to FaDu cells” value ([2]; concentration of 10 μg/mL) was “do not bind significantly” and the “binding signal for NTSR1” value [1] was “good binding signal”.

B3: 7C3 HdHu: humanized anti-NTSR1 antibody, presumably 7C3 HdVH paired with 7C3 HuVL (antibody, V domains shown)
VH: EVQLVESGGGLVQPGGSLRLSCAASGYTFTSSWIHWVRQAPGKGLEWVAQIRPNSGNTYYNEKFKVRFTISRDDSKNTLYLQMNSLRAEDTAVYYCARYYYGFDYWGQGTLVTVSS
VL: DIVMTQTPLSLSVTPGQPASISCRSSQSIVHSNGNTYLEWYLQKPGQSPQLLIYKVSNRFSGVPDRFSGSGSGTDFTLKISRVEAEDVGVYYCFQGSHLPWTFGQGTKVEIK
For B3, the “binding signal for NTSR1” value [1] was “much lower binding signals”.

B4: 7C3 HuHu: humanized anti-NTSR1 antibody, 7C3 HuVH (SEQ ID NO: 13) and 7C3 HuVL (SEQ ID NO: 14) (antibody, V domains shown)
VH: QVQLVQSGAEVKKPGASVKVSCKASGYTFTSSWIHWVRQAPGQGLEWMGQIRPNSGNTYYNEKFKVRVTMTRDTSTSTVYMELSSLRSEDTAVYYCARYYYGFDYWGQGTLVTVSS
VL: DIVMTQTPLSLSVTPGQPASISCRSSQSIVHSNGNTYLEWYLQKPGQSPQLLIYKVSNRFSGVPDRFSGSGSGTDFTLKISRVEAEDVGVYYCFQGSHLPWTFGQGTKVEIK
For B4, the “binding to FaDu cells” value ([2]; concentration of 1 μg/mL) was “do not bind well”, the “binding to FaDu cells” value ([2]; concentration of 10 μg/mL) was “do not bind significantly” and the “binding signal for NTSR1” value [1] was “good binding signal”. The Kd [1] was 0.294 nM.

B5: 7C3 MM: mouse-human chimera anti-NTSR1 antibody, m7C3 VH (SEQ ID NO: 7) and m7C3 VL (SEQ ID NO: 8) (antibody, V domains shown)
VH: QVQLQQPGSVLVRPGDSVMLSCKASGYTFTSSWIHWAKQRPGQGPEWIGQIRPNSGNTYYNEKFKVKATLTVDTSSSTAYVDLSSLTSEDSAVYYCARYYYGFDYWGQGTTVTVSS
VL: DVLMTQTPLSLPVSLGDQASISCRSSQSIVHSNGNTYLEWYLQKPGQSPKLLIYKVSNRFSGVPDRFSGSGSGTDFTLKISRVEAEDLGVYYCFQGSHLPWTFGGGTKLEIK
With B5 the “binding to FaDu cells” value ([2]; concentration of 1 μg/mL) was “do not bind well”, the “binding to FaDu cells” value ([2]; concentration of 10 μg/mL) was “do not bind significantly” and the Kd [1] was 0.676 nM.

B6: AKT2: affinity-matured mouse-human chimera anti-NTSR1 antibody, AKT2 VH (SEQ ID NO: 9) and AKT2 VL (SEQ ID NO: 10) (antibody, V domains shown)
VH: QVQLQQPGSVLVRPGASVKLSCKASGYAFTSSWIHWAKQRPGQGLEWIGQIRPNSGNTYYNEKFKVKATLTVDTSSSTAYVDLSSLTSEDSAVYYCARYHYGFDYWGQGTLVTVSS
VL: DVLMTQTPLSLPVSLGDQASISCRSSQSIVHSNGNTYLEWYLQKPGQSPKLLIYKVSNRFSGVPDRFSGSGSGTDFTLKISRVEAEDLGVYYCFQGAHLPWTFGGGTKLEIK
In the case of B6, the “TGI % (1-T/C) Day 0” value ([3]; Day 0) is reported as 0.0%, the “TGI % (1-T/C) Day 5” value ([3]; Day 5) is reported as 11.1% and the “TGI % (1-T/C) Day 7” value ([3]; Day 7) is reported as 34.8%. The “TGI % (1-T/C) Day 10” value ([3]; Day 10) was 31.0%, the “TGI % (1-T/C) Day 12” value ([3]; Day 12) was 31.1% and the “TGI % (1-T/C) Day 14” value ([3]; Day 14) was 29.9%. The “TGI % (1-T/C) Day 17” value ([3]; Day 17) was 21.6%, the MRT ([4]; total antibody) was 89.6 ± 6.6 h and the Vss ([4]; total antibody) was 0.159 ± 0.010 L/kg. The t½ ([4]; total antibody) was 71.7 ± 5.1^ h, the “in vivo half live” value ([4]; listed as αNTSR1 (AKT2), 5 mg/kg) was 71.7 ± 5.1 h and 71 h and the “Ka (kon, association rate)” value [5] was 406800 M⁻¹ s⁻¹. For the same molecule, the “Kd (koff, dissociation rate)” value [5] was 0.0006558 s⁻¹.
